Measured values: PMC10675840, “Structure-function analysis of ceTIR-1/hSARM1 explains the lack of Wallerian axonal degeneration in C. elegans” (Cell reports, 2023)

What was measured:
ceTIR-1 = biological target: T1, ceTIR-1 (Caenorhabditis elegans, UniProt Q86DA5); experiment: HPLC NAD+ consumption, dose response; format: biochemical
T1 construct: gene tir-1; near-intact ARM-SAM-SAM-TIR, residues 162-872 (HMD...QQR), N-terminal 6xHis + TEV site, HEK293F expression, mostly 9-mer ring, partly dissociated
T1 sequence (Q86DA5 216-926): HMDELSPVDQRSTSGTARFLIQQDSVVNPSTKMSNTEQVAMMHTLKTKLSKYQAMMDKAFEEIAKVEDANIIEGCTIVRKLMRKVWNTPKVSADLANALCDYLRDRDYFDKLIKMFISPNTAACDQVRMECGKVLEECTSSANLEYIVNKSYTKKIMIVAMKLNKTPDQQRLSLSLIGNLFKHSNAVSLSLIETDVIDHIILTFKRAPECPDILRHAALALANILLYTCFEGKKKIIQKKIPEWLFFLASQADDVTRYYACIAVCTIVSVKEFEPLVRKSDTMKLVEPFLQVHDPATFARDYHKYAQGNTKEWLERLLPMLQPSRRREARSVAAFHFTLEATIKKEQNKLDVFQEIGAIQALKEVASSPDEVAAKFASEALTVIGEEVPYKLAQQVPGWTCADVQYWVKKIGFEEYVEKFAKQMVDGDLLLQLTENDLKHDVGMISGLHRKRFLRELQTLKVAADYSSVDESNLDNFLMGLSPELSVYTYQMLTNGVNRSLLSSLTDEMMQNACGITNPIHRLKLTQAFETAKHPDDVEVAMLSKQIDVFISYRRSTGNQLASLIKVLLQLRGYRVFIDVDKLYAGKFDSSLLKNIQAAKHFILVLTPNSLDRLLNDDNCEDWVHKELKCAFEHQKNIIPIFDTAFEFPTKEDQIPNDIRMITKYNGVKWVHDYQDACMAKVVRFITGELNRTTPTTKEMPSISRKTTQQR
Description: HPLC NAD+ consumption, dose response on ceTIR-1 | Nicotinamide (NAM) inhibits ceTIR-1 NADase activity

[1] = biological target: T2, hSARM1 ARM and SAM domains (residues 26-562), the human part of CHIMERA (human, UniProt Q6SZW1 26-562); experiment: cryo-EM structure; purified CHIMERA supplemented with 5 mM NAD+; Titan Krios; 136,346 particles, C8 symmetry imposed; conditions: both partners purified
T2 construct: human SARM1 ARM and SAM domains, residues 26-562 (26ERL...DTP562); Stood joined on one chain with m8 (together they are CHIMERA); written apart only for the contact of the human ARM with the C. elegans TIR in the structure; also called human ARM and SAM domains; source: HEK293F, transfected, purified, as part of the CHIMERA chain
T2 sequence (looked up): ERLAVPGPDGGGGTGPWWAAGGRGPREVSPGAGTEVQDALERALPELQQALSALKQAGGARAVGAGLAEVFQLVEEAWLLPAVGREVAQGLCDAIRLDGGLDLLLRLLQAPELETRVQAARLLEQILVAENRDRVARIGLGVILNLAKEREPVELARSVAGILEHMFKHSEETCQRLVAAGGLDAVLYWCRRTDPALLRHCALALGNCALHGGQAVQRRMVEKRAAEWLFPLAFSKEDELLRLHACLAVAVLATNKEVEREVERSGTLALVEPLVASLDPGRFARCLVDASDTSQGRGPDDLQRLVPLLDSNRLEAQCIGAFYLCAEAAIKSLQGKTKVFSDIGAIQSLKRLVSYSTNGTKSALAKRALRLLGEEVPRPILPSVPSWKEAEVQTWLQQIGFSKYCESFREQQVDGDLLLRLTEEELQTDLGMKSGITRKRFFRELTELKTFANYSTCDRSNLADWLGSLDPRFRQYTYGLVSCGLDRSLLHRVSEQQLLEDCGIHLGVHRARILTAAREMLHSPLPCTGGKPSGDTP

[2] = substrate: NC(=O)c1ccc[n+]([C@@H]2O[C@H](COP(=O)(O)OP(=O)(O)OC[C@H]3O[C@@H](n4cnc5c(N)ncnc54)[C@H](O)[C@@H]3O)[C@@H](O)[C@H]2O)c1; experiment: HPLC NAD+ consumption, Michaelis-Menten fit; format: biochemical, Caenorhabditis elegans; conditions: […] min, […] enzyme, pH […], unit appears as mM, a character error for µM (b50 gives about […] for hSARM1 and […] higher for ceTIR-1)
[3] = biological target: the molecule itself; experiment: cross-linking; glutaraldehyde cross-linking of ceTIR-1^TIR and ceTIR-1^(TIR L729H)
[4] = biological target: the molecule itself; experiment: cryo-EM structure; purified CHIMERA supplemented with 5 mM NAD+; Titan Krios; 136,346 particles, C8 symmetry imposed
[5] = biological target: the molecule itself; experiment: SEC; gel filtration of Ni-NTA purified hSARM1 and ceTIR-1, fractions read by anti-FLAG WB; Superdex 200 Increase 10/300, 25 mM phosphate pH 8.5, 120 mM NaCl, 2.5% glycerol, 1 mM DTT

NC(=O)c1cccnc1 [NAM] was tested. Which IC50 (ceTIR-1) did it give?
Its IC50 is 910 µM.

B1: ceTIR-1 TIR domain (residues 709-872), the C. elegans part of CHIMERA (domain or fragment, UniProt Q86DA5-2 709-872, looked up)
chain: DVFISYRRSTGNQLASLIKVLLQLRGYRVFIDVDKLYAGKFDSSLLKNIQAAKHFILVLTPNSLDRLLNDDNCEDWVHKELKCAFEHQKNIIPIFDTAFEFPTKEDQIPNDIRMITKYNGVKWVHDYQDACMAKVVRFITGELNRTTPTTKEMPSISRKTTQQR
notes: ceTIR-1 TIR domain, residues 709-872 (709DVF...QQR872); Stood joined on one chain with m7 (together they are CHIMERA); also called C. elegans TIR; source: HEK293F, transfected, purified, as part of the CHIMERA chain
Does B1 bind [1]?
Result: binds

B2: ceTIR-1 (Caenorhabditis elegans) (protein)
chain: HMDELSPVDQRSTSGTARFLIQQDSVVNPSTKMSNTEQVAMMHTLKTKLSKYQAMMDKAFEEIAKVEDANIIEGCTIVRKLMRKVWNTPKVSADLANALCDYLRDRDYFDKLIKMFISPNTAACDQVRMECGKVLEECTSSANLEYIVNKSYTKKIMIVAMKLNKTPDQQRLSLSLIGNLFKHSNAVSLSLIETDVIDHIILTFKRAPECPDILRHAALALANILLYTCFEGKKKIIQKKIPEWLFFLASQADDVTRYYACIAVCTIVSVKEFEPLVRKSDTMKLVEPFLQVHDPATFARDYHKYAQGNTKEWLERLLPMLQPSRRREARSVAAFHFTLEATIKKEQNKLDVFQEIGAIQALKEVASSPDEVAAKFASEALTVIGEEVPYKLAQQVPGWTCADVQYWVKKIGFEEYVEKFAKQMVDGDLLLQLTENDLKHDVGMISGLHRKRFLRELQTLKVAADYSSVDESNLDNFLMGLSPELSVYTYQMLTNGVNRSLLSSLTDEMMQNACGITNPIHRLKLTQAFETAKHPDDVEVAMLSKQIDVFISYRRSTGNQLASLIKVLLQLRGYRVFIDVDKLYAGKFDSSLLKNIQAAKHFILVLTPNSLDRLLNDDNCEDWVHKELKCAFEHQKNIIPIFDTAFEFPTKEDQIPNDIRMITKYNGVKWVHDYQDACMAKVVRFITGELNRTTPTTKEMPSISRKTTQQR
notes: near-intact ARM-SAM-SAM-TIR, residues 162-872 (HMD...QQR), N-terminal 6xHis + TEV site, HEK293F expression, mostly 9-mer ring, partly dissociated
How did the Km [2] turn out when B2 was run?
Its Km is 0.25 mM.

B3: ceTIR-1^TIR (residues 703-872) (domain or fragment, C. elegans, UniProt Q86DA5-2 703-872, looked up)
chain: MLSKQIDVFISYRRSTGNQLASLIKVLLQLRGYRVFIDVDKLYAGKFDSSLLKNIQAAKHFILVLTPNSLDRLLNDDNCEDWVHKELKCAFEHQKNIIPIFDTAFEFPTKEDQIPNDIRMITKYNGVKWVHDYQDACMAKVVRFITGELNRTTPTTKEMPSISRKTTQQR
notes: ceTIR-1 TIR domain, residues 703-872 (703MLS...QQR872); Dimeric by glutaraldehyde cross-linking; also called isolated TIR domain of ceTIR-1; source: E. coli T7 Express, purified (HisTrap, TEV, second HisTrap, Superdex SEC); not shown: His tag, N-terminal, cleaved
With B3 as the molecule, how does the “stoichiometry N” value [3] read?
Its value is 2.

B4: CHIMERA (hSARM1 26-562 fused to ceTIR-1 709-872) (enzyme, human | C. elegans, UniProt Q6SZW1 26-562, looked up)
chain: ERLAVPGPDGGGGTGPWWAAGGRGPREVSPGAGTEVQDALERALPELQQALSALKQAGGARAVGAGLAEVFQLVEEAWLLPAVGREVAQGLCDAIRLDGGLDLLLRLLQAPELETRVQAARLLEQILVAENRDRVARIGLGVILNLAKEREPVELARSVAGILEHMFKHSEETCQRLVAAGGLDAVLYWCRRTDPALLRHCALALGNCALHGGQAVQRRMVEKRAAEWLFPLAFSKEDELLRLHACLAVAVLATNKEVEREVERSGTLALVEPLVASLDPGRFARCLVDASDTSQGRGPDDLQRLVPLLDSNRLEAQCIGAFYLCAEAAIKSLQGKTKVFSDIGAIQSLKRLVSYSTNGTKSALAKRALRLLGEEVPRPILPSVPSWKEAEVQTWLQQIGFSKYCESFREQQVDGDLLLRLTEEELQTDLGMKSGITRKRFFRELTELKTFANYSTCDRSNLADWLGSLDPRFRQYTYGLVSCGLDRSLLHRVSEQQLLEDCGIHLGVHRARILTAAREMLHSPLPCTGGKPSGDTPDVFISYRRSTGNQLASLIKVLLQLRGYRVFIDVDKLYAGKFDSSLLKNIQAAKHFILVLTPNSLDRLLNDDNCEDWVHKELKCAFEHQKNIIPIFDTAFEFPTKEDQIPNDIRMITKYNGVKWVHDYQDACMAKVVRFITGELNRTTPTTKEMPSISRKTTQQR
notes: human SARM1 ARM and SAM domains, residues 26-562 (26ERL...DTP562); ceTIR-1 TIR domain, residues 709-872 (709DVF...QQR872); Octamer by cryo-EM, sample supplemented with 5 mM NAD+; also called hARM-SAM-ceTIR CHIMERA; Chimera construct; source: HEK293F, transfected, purified (Ni-chelate, Superdex 200 Increase SEC)
With B4 as the molecule, how does the “stoichiometry N” value [4] read?
The value was 8.

B5: hSARM1 (near-intact, residues 26-724) (enzyme, human, UniProt Q6SZW1 26-724, looked up)
chain: ERLAVPGPDGGGGTGPWWAAGGRGPREVSPGAGTEVQDALERALPELQQALSALKQAGGARAVGAGLAEVFQLVEEAWLLPAVGREVAQGLCDAIRLDGGLDLLLRLLQAPELETRVQAARLLEQILVAENRDRVARIGLGVILNLAKEREPVELARSVAGILEHMFKHSEETCQRLVAAGGLDAVLYWCRRTDPALLRHCALALGNCALHGGQAVQRRMVEKRAAEWLFPLAFSKEDELLRLHACLAVAVLATNKEVEREVERSGTLALVEPLVASLDPGRFARCLVDASDTSQGRGPDDLQRLVPLLDSNRLEAQCIGAFYLCAEAAIKSLQGKTKVFSDIGAIQSLKRLVSYSTNGTKSALAKRALRLLGEEVPRPILPSVPSWKEAEVQTWLQQIGFSKYCESFREQQVDGDLLLRLTEEELQTDLGMKSGITRKRFFRELTELKTFANYSTCDRSNLADWLGSLDPRFRQYTYGLVSCGLDRSLLHRVSEQQLLEDCGIHLGVHRARILTAAREMLHSPLPCTGGKPSGDTPDVFISYRRNSGSQLASLLKVHLQLHGFSVFIDVEKLEAGKFEDKLIQSVMGARNFVLVLSPGALDKCMQDHDCKDWVHKEIVTALSCGKNIVPIIDGFEWPEPQVLPEDMQAVLTFNGIKWSHEYQEATIEKIIRFLQGRSSRDSSAGSDTSLEGAAPMGPT
notes: human SARM1 (sterile alpha and TIR motif containing 1), residues 26-724 (26ERL...GPT724); A TEV site follows the His tag; no cleavage is described; also called human SARM1; source: HEK293F, transfected, purified (Ni-chelate, Superdex 200 Increase SEC)
Does B5 bind [5]?
Result: binds
